This experiment deals with Bcl-xL protein, Q07817. As to the kind of experiment: YaxAB nanopore; Bcl-xL with a mix of four competing peptides at 1:15.
Sequence of Bcl-xL protein, Q07817 (Q07817 1-209): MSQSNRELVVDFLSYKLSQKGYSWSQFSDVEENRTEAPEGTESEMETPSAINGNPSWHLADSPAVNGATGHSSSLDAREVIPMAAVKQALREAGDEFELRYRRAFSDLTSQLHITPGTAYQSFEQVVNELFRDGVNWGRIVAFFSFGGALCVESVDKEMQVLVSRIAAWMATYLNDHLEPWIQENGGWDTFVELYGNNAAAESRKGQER

Consider GQVGRQLAIIGDDANR (modifications not checked) [Bak_BH3_I85A, Q16611 72-87], for which the signal frequency of the Bcl-xL-peptide complex is 7%.

As to GQVGRQAAIIGDDINR (modifications not checked) [Bak_BH3_L78A, Q16611 72-87], the signal frequency of the Bcl-xL-peptide complex is 3%.

These data come from patent US20260168983A1, “YaxAB NANOPORE, NANOPORE SYSTEM COMPRISING SAME AND APPLICATIONS THEREOF” (KOREA RESEARCH INSTITUTE OF BIOSCIENCE AND BIOTECHNOLOGY, priority 2022, published 2026).
